From the MegaScale stability set (Tsuboyama et al. 2023)

B1: EEHEE_rd4_0003 (parent)
chain: KKVTINGVEIKFNNPEEAVKFALELAKRLNLRIEFHGDQIKIE

Variants of: B1
Assay: folding stability dG (cDNA display proteolysis); higher = more stable
Settings: PBS, room temperature

Folding stability dG [kcal/mol] of substitutions, site by site:
H36: M 2.72 | K 2.53 | T 2.7 | A 2.62 | L 2.88 | Q 2.56 | P 1.71 | G 2.28 | I 2.93 | D 2.76 | Y 2.75 | F 2.78 | N 2.58 | V 2.89 | R 2.52 | S 2.66 | W 2.73 | C 3.21 | E 2.58
G37: M 2.52 | H 2.42 | A 2.39 | W 2.44 | I 2.35 | V 2.38 | Q 2.44 | R 2.29 | N 2.41 | L 2.45 | C 2.68 | T 2.26 | D 2.45 | F 2.48 | S 2.35 | P 2.49 | Y 2.41 | E 2.52 | K 2.47
E43: F 3.59 | C 3.85 | L 3.23 | K 2.65 | I 3.32 | A 2.59 | Q 2.66 | H 2.82 | P 1.83 | G 2.8 | N 2.6 | D 2.5 | R 2.64 | M 3.13
R32: K 2.54 | H 2.24 | F 2.12 | P 1.71 | D 1.56 | Y 2.15 | G 1.6 | V 2.33 | S 2.17 | T 2.31 | W 2.2 | I 2.36 | L 2.19 | C 2.81 | E 1.64 | N 2.03 | Q 2.1 | M 2.07
A26: C 2.98 | K 1.66 | G 1.91 | R 1.73 | D 0.982 | N 1.43 | M 2.37 | L 2.52 | I 2.3 | V 2.26 | S 2.23 | Q 1.78 | F 2.56 | P 1.19 | H 1.47 | E 1.33 | Y 2.29 | W 2.14 | T 1.92
I33: V 2.67 | W 2.08 | L 2.35 | F 1.98 | A 1.69 | Q 1.08 | Y 1.74 | N 0.797 | T 1.31 | D 0.681 | G 0.975 | M 1.92 | R 0.847 | H 0.908 | E 0.529 | P 1.29 | S 0.908 | K 0.882
D38: R 2.01 | C 3.49 | A 2.15 | E 2.3 | Y 2.45 | H 2.25 | L 2.33 | G 2.31 | I 2.49 | V 2.23 | N 2.61 | M 2.34 | F 2.7 | T 2.29 | W 2.73 | P 2.1 | S 2.32 | K 2.15 | Q 2.25
L29: Q 1.73 | K 1.6 | M 2.38 | W 2.43 | R 1.43 | H 2.21 | E 1.66 | G 1.88 | S 1.55 | C 3.71 | N 1.72 | I 1.9 | Y 2.67 | T 1.61 | A 1.74 | F 2.65 | D 1.29 | P 1.52 | V 1.77
K41: Q 2.27 | P 1.3 | M 2.71 | T 2.69 | S 2.46 | H 2.49 | A 2.36 | R 2.8 | I 3.21 | F 3 | G 1.73 | C 3.17 | N 2.52 | D 1.91 | Y 2.94 | E 2.1 | V 3 | L 2.86 | W 2.85
I42: E 1.3 | Y 1.6 | R 1.44 | P 1.27 | A 1.29 | F 2.22 | K 1.43 | Q 1.24 | S 1.47 | N 1.74 | H 1.63 | G 1.26 | D 1.36 | W 1.58 | M 2.25 | V 2.31 | L 3.07 | T 1.38
F35: H 1.88 | W 2.7 | L 2.2 | R 1.8 | G 1.41 | K 1.78 | I 2.58 | N 1.46 | E 1.63 | C 3.05 | D 1.5 | S 1.64 | P 1.31 | T 1.82 | M 2.24 | V 2.37 | Y 2.41 | A 1.71 | Q 1.79
I40: R 1.25 | Y 1.64 | G 1.37 | P 1.24 | V 2.07 | L 2.1 | S 1.43 | D 1.39 | W 2.02 | Q 1.39 | M 1.92 | T 1.51 | F 1.78 | E 1.44 | K 1.5 | C 2.22 | H 1.56 | A 1.49 | N 1.44
R28: K 2.33 | V 2.36 | N 1.99 | G 1.91 | H 2.22 | W 2.68 | C 3.28 | L 2.57 | D 1.69 | F 2.5 | M 2.5 | P 1.29 | Q 2.21 | A 2.39 | Y 2.63 | T 2.2 | I 2.54 | S 2.35 | E 2.08
Q39: Y 3.04 | D 2.64 | K 2.33 | A 2.62 | V 3.18 | H 2.91 | N 2.82 | P 1.77 | E 2.92 | S 2.75 | F 2.91 | T 3.22 | W 3.07 | G 2.52 | I 3.05 | M 2.88 | C 3.11 | L 2.95 | R 2.52
E34: I 2.93 | F 2.74 | L 2.49 | N 2.27 | S 2.77 | D 2.12 | W 2.62 | K 2.42 | V 2.73 | H 2.42 | A 2.29 | T 2.86 | Q 2.44 | R 2.58 | P 1.48 | G 1.96 | M 2.47 | Y 2.77 | C 3.19
N30: K 2.55 | V 2.29 | W 2.72 | L 2.51 | F 2.55 | P 1.82 | M 2.43 | E 1.86 | D 1.9 | Y 2.42 | A 2.23 | G 2.65 | C 3.46 | R 2.61 | T 2.12 | Q 2.38 | S 2.2 | I 2.34 | H 2.47
K27: F 2.63 | Y 2.44 | W 2.47 | T 2.52 | S 2.52 | D 2.03 | L 2.62 | R 2.79 | A 2.72 | I 2.4 | N 2.32 | H 2.48 | M 2.57 | G 2.39 | C 3.23 | E 2.38 | Q 2.47 | P 1.37 | V 2.24
L31: V 2.56 | A 2.72 | F 2.25 | K 1.2 | S 1.7 | C 2.84 | Y 2.14 | W 2.51 | H 1.4 | N 0.824 | I 2.5 | E 0.917 | D 0.559 | P 0.746 | T 1.71 | Q 1.13 | G 2.42 | R 1.34 | M 2.67
